Assay results as given in publication PMC5993198.

Molecular target: rBac-RelA (human? (hRelA; expressed in Sf9), UniProt Q04206 1-551)
Test: fluorescence anisotropy

Chain of rBac-RelA (Q04206 whole entry): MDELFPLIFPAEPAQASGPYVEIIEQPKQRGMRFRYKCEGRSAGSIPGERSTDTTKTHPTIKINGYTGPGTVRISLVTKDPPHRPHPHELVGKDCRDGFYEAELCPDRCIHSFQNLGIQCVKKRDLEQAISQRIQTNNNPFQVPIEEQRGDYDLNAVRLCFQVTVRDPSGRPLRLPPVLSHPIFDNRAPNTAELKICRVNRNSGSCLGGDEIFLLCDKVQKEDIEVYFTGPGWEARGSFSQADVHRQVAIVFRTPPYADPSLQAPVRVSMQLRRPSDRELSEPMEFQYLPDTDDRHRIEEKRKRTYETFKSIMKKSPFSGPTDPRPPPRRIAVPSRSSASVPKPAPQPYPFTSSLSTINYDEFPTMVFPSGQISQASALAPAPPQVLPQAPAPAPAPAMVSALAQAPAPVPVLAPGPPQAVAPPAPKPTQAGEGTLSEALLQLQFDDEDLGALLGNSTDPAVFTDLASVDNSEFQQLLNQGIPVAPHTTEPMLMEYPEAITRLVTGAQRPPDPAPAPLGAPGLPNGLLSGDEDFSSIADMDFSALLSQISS

B1: fluorescein ssDNA negative control containing κB site (ssDNA)
DNA: ATCGTGGGAAAGTTTCTGGATATTCCCTTGGA
B1: no binding.
